Results as given in the supplement of paper PMC10567573.

B1: ZNF207 (parent)
chain: YQGGPPRPPMGMRPPVMSQGGRY
B2: SCNN1D (parent)
chain: FYRLYQDLETHRLPCTSRCPRPCR

Variants of: B1
Assay: protein stability index of a GFP-peptide fusion (GPS, HEK-293T) (PSI 1-6); higher = more stable
Details: c terminus: native
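Further: lentivirally expressed fusions sorted by FACS into six bins by GFP to DsRed ratio, PSI derived from sequencing read proportions per bin multiplied by bin number.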

Protein stability index of substitutions, site by site:
Y23: W 3.51, P 2.82, V 1.5, M 2.44, T 1.9, S 2.43, D 3.11, E 2.37, C 1.97, L 1.66, A 1.98
S18: Y 1.58, H 1.44, K 1.81, N 2.13, E 2.72, W 2.56, D 2.04, L 2.28, R 2.2, P 2.08
G21: R 2.27, C 2.24, T 2.74, H 1.77, Q 2.1, V 2.3, P 3.63, F 1.72, S 1.82
M17: L 1.52, Y 1.75, W 1.67, S 2.62, Q 2.56, V 1.49
R22: T 1.89, D 1.89, F 1.21, M 1.69, K 1.99, H 1.91, S 1.7, Q 1.43
G20: K 2.16, S 1.67, R 2.75, W 2.46, F 1.88, Y 1.68, E 2.23
Q19: T 2.39, K 2.18, E 2.17, H 4.08, L 1.46, R 2.17, N 2.56, P 1.9

Variants of: B2
Assay: as above
Details: c terminus: a fixed tail appended

Protein stability index: each site, then its substitutions
L4: T 2.79, S 3.46, Q 3.24, E 4.13, H 3.23, C 1.56, D 2.69, M 2.34, W 2.59, N 3.29, I 2.41, R 2.49, K 3.68, G 3.51, P 3.47, F 2.04, Y 2.14, A 3.02
Y2: T 1.81, D 3.56, Q 1.98, E 4.26, W 2.75, P 2.85, L 1.55, H 1.59, I 2.27, A 2.69, C 1.55, M 2.4, K 2.41, G 2.74, N 3.63, R 2.58, F 2.22, S 2.49, V 2.97
Q6: F 1.79, L 1.54, M 1.91, S 2.23, I 2.31, P 1.38, C 1.68, E 3.63, D 2.52, K 1.35, N 2.28, R 1.96, G 1.7, A 2.21, H 1.96
R3: K 2.58, N 2.22, Y 1.66, A 2.32, C 1.98, P 3.04, M 2.09, E 2.63, V 2.04, T 2.65, F 2.32, D 2.71, L 2, S 2.42, I 1.95, H 2.38, G 2.65, Q 2.71
F1: G 4.3, L 1.54, P 3.59, Q 2.71, S 3.2, N 3.47, I 2.12, W 2.91, D 3.8, Y 2.4, M 2.02, H 3.06, R 2.92, V 2.13, T 3.46, K 3.37, C 2.22, A 2.87, E 3.71
Y5: A 4.45, E 3.17, I 1.76, T 2.8, K 2.6, D 3.64, L 3.17, M 2.29, W 2.08, H 2.92, G 3.16, N 3.29, P 3.49, Q 2.81, R 2.02, V 1.88, S 2.57, F 1.98, C 2.13
